For 2 proteins, Km, kcat and kcat/Km results are on record in patent publication US12331324B2, “Versatile peroxidases and uses thereof” (Yeda Research and Development Co. Ltd., priority 2021, dated 2025).

Substrate in series [1]: CCn1c(=NN=c2sc3cc(S(=O)(=O)O)ccc3n2CC)sc2cc(S(=O)(=O)O)ccc21
Briefly: purified protein, by the assay type. To be noted: optimum pH, 25° C., 0.4 mM H2O2.

Substrate in series [2]: COc1ccc(CO)cc1OC
In words: purified protein, by the assay type. Conditions: other: VA, RB5, optimum pH, 25° C., 0.4 mM H2O2.

Substrate in series [3]: COc1cccc(OC)c1O
Briefly: purified protein, by the assay type. Conditions: optimum pH, 25° C., 0.4 mM H2O2.

Substrate in series [4]: Nc1c(N=Nc2ccc(S(=O)(=O)CCOS(=O)(=O)O)cc2)c(S(=O)(=O)O)cc2cc(S(=O)(=O)O)c(N=Nc3ccc(S(=O)(=O)CCOS(=O)(=O)O)cc3)c(O)c12
Briefly: purified protein, by the assay type. Conditions: other: VA, RB5, optimum pH, 25° C., 0.4 mM H2O2.

Substrate in series [5]: OO
In words: purified protein, by the assay type. To be noted: other: H2O2 kinetics with 2 mM ABTS, optimum pH for ABTS, 25° C.

Substrate in series [6]: CCn1c(=NN=c2sc3cc(S(=O)(=O)O)ccc3n2CC)sc2cc(S(=O)(=O)O)ccc21
Briefly: Steady-state kinetics (Michaelis-Menten) of purified VP design 11H with peroxidase substrates. Type of series: biochemical, Pleurotus ostreatus. Conditions: optimum pH, 25° C., 0.1 mM H2O2. The method, then:
(§1) VPs production and purification. A colony from S. cerevisiae clone containing the VP gene (5H, 8H, 11H, VPL_R4, VPL_2-1B) was picked from an SC drop-out plate, inoculated in 25 mL minimal medium in a 250 flask, and incubated for 48 hours at 30° C. and 225 rpm. An aliquot of cells was removed and used to inoculate 100 mL of minimal medium in a 1 L flask to an OD600 nm of 0.25-0.30, under the same conditions. The cells completed two growth phases (8-10 hours, reaching OD600 nm˜1-1.5), then the expression medium (450 mL) was inoculated with 50 mL of the pre-culture in a 2 L flask (OD600 nm˜0.1). Cells were incubated for a further ˜60 hours at 30° C. and 225 rpm. Thereafter, cells were centrifuged at 6000 g for 15 min at 4° C., and the supernatant was collected and filtered with a 0.2 μm filter bottle.
(§2) Filtrates were subjected to fractional precipitation with ammonium sulfate in two steps: first cut of 50%, followed by centrifugation and elimination of the precipitates, and the second cut of 70%. Buffer A was used to dissolve the pellet, and the dissolved protein solution was shaken overnight at 4° C. for maximal recovery. The dissolved fraction was then centrifuged, filtrated, concentrated, and subjected to overnight dialysis against buffer A. Filtered fractions of the VP proteins after dialysis were uploaded into a HiTrap™ Q HP Column (GE Healthcare Bio-Sciences AB, Uppsala, Sweden) pre-equilibrated with buffer A, through ÄKTA pure protein purification system (GE Healthcare Bio-Sciences AB). Proteins were eluted in a two-step linear gradient from 0 to 1 M NaCl, at a flow rate of 1 ml/min: the first phase of 0-25% over 15 column volumes (75 min) and second phase of 25-100% over 2 column volumes (10 min). The fractions of the peak with the highest VP activity (and absorption at 407 nm) were pooled, concentrated, and dialyzed against 20 mM piperazine buffer pH=5.5 and 150 mM NaCl (buffer B). Protein fractions were then uploaded onto a Superdex 75 Increase 10/300 GL (GE Healthcare Bio-Sciences AB) through the ÄKTA pure system pre-equilibrated with buffer B. The fractions of the peak with the highest VP activity (and absorption at 407 nm) were pooled and dialyzed against buffer A. Pure protein samples were stored at 4° C. Protein concentration was determined using the BCA assay with bovine serum albumin as a standard. The obtained Reinheitszahl values (Rz: Abs407 nm/Abs280 nm), which indicate for the purity of peroxidases, were 1 for 8H (due to high tryptophan content) and above 2 for 5H, 11H, R4 and 2-1B.
(§3) pH activity profiles. For purified 5H, 8H, 11H, and R4, 20 μL protein samples (diluted in buffer A) were transferred into activity 96 plates (in the case of VA and MnSO4, UV-Star plates; Greiner Bio-One GmbH, Kremsmünster, Austria) and then, 180 μL of the reaction mixture were added to each row in the plate, and absorption at the appropriate wavelength (substrate-dependent) was recorded immediately in a kinetic mode in a plate-reader at 25° C. The reaction mixtures contained a specific substrate in 100 mM citrate-phosphate-borate buffer (pH 2, 3, 3.5, 4, 5, 6, 7, 8) and 0.1 mM H2O2. The activities were recorded in triplicate. The following substrate concentrations and absorption wavelengths were used: ABTS: 2 mM, 418 nm; DMP: 5 mM, 469 nm; RB5: 0.05 mM, 598 nm; VA: 30 mM, 310 nm. For manganese, the reaction mixtures contained 60 mM MnSO4 in 100 mM sodium tartrate buffer (pH 3, 3.5, 4, 4.5, 5) and 0.1 mM H2O2, and the Mn^3+-tartrate complex absorption was read at 238 nm. For each protein and substrate, the activities were normalized to the activity at optimal pH for residual activity calculations. Each activity assay was conducted in triplicate.
(§4) Kinetic parameters. Steady-state kinetics were determined for 5H, 8H, 11H and R4, by measuring the activity (initial rates) in increasing concentrations of the substrate, and the KM and Kcat values were calculated by fitting the results to the Michaelis-Menten model (V0=KcatES/(KM+S)). […]

Substrate in series [7]: COc1ccc(CO)cc1OC
The series is described as above. It counts as biochemical, Pleurotus ostreatus. To be noted: other: VA, RB5, optimum pH, 25° C., 0.1 mM H2O2. The method, then: as §1, §2, §3, §4

Substrate in series [8]: COc1cccc(OC)c1O
Described as above. Type of series: biochemical, Pleurotus ostreatus. To be noted: optimum pH, 25° C., 0.1 mM H2O2. The protocol:
as §1, §2, §3, §4

Substrate in series [9]: Nc1c(N=Nc2ccc(S(=O)(=O)CCOS(=O)(=O)O)cc2)c(S(=O)(=O)O)cc2cc(S(=O)(=O)O)c(N=Nc3ccc(S(=O)(=O)CCOS(=O)(=O)O)cc3)c(O)c12
The series is described as above. Type of series: biochemical, Pleurotus ostreatus. To be noted: other: VA, RB5, optimum pH, 25° C., 0.1 mM H2O2. The protocol:
as §1, §2, §3, §4

Substrate in series [10]: OO
The series is described as above. It counts as biochemical, Pleurotus ostreatus. Conditions: other: H2O2 kinetics with 2 mM ABTS, optimum pH for ABTS, 25° C. The method, then:
as §1, §2, §3, §4

B1: Pleurotus ostreatus versatile peroxidase VP5, designed variant 5H, SEQ ID NO: 1 (wild type SEQ ID NO: 4; mutations A11S, V15T, A17S, A19E, P26D, D38G, A40Q, … (protein)
chain: VSLPQKRATCSGGQTTSNEACCVLFDLMEDLQKNLFDGGQCGEQAHEALRLTFHDAIGFSPSRGVMGGADGSVITFSDIETNFPANLGIDDIVEAEKSFLQRHNISAGDLVHFAATLAVTNCPGAPRIPFFLGRPPATAPSPPGLVPEPFDSVTDILARMADAGFSPVEVVWLLSAHSVAAADHVDPTIPGTPFDSTPNLFDSQFFIETQLRGTTFPGTGGNPGEVKSPLPGEMRLQSDHLFARDPRTACEWQSMVNDQQKIQDRFRDTLFKMSMLGQNQDDMIDCSDVIPVPPPLTTKPHLPAGKSKTDVEQACATAPFPTLPADPGPPTSVPPVPPA
The term Km denotes the concentration of substrate that gives half-maximal velocity. In general, kcat refers to the number of substrate molecules converted per active site and unit of time at saturation. As usually defined, the kcat/Km is the turnover number divided by the Michaelis constant. As to B1, the Km in series [1] (other: high efficiency site) is 1.9 ± 0.4 µM; in [1] (other: low efficiency site), 765 ± 96 µM; in [2], 158 ± 27 µM; in [3] (other: high efficiency site), 85.7 ± 16.9 µM; in [3] (other: low efficiency site) it was 27,700 ± 7,100 μM; in series [4], 2.9 ± 1.0 µM. Also, the Km in series [5] is 197 ± 20 µM. Moreover, the catalytic constant (kcat) stood at 1.5 ± 0.1 s⁻¹ in series [1] (other: high efficiency site); 33.2 ± 1.8 s⁻¹ in series [1] (other: low efficiency site); 0.52 ± 0.02 s⁻¹ in series [2]; 1.2 ± 0.1 s⁻¹ in [3] (other: high efficiency site); 5.4 ± 0.6 s⁻¹ in series [3] (other: low efficiency site); 0.18 ± 0.04 s⁻¹ in series [4]. Moreover, the kcat in series [5] is 20.3 ± 0.8 s⁻¹. Further, the kcat/Km stood at 763 ± 151 s⁻¹ mM⁻¹ in [1] (other: high efficiency site); 43.4 ± 5.9 s⁻¹ mM⁻¹ in [1] (other: low efficiency site); 3.3 ± 0.6 s⁻¹ mM⁻¹ in series [2]; 14.4 ± 3.0 s⁻¹ mM⁻¹ in series [3] (other: high efficiency site); 0.19 ± 0.05 s⁻¹ mM⁻¹ in series [3] (other: low efficiency site); 62.3 ± 25.2 s⁻¹ mM⁻¹ in [4]. Further, in series [5], the kcat/Km stood at 103 ± 11 s⁻¹ mM⁻¹.

B2: Pleurotus ostreatus versatile peroxidase VP11, designed variant 11H, SEQ ID NO: 3 (wild type SEQ ID NO: 6; mutations A11S, V15T, A17S, P26D, I27L, L28R, E29D, … (protein)
chain: VTLPQKRATCSGGQTTSNAACCVLFDLRDDLQKNLFDGGQCGEEVHESLRLTFHDAIGFSPTKGGGGADGSVLIFSDTELNFPANLGIDEIVEAQKPFLQRHNISAGDLVQFAGALGVSNCPGAPRIPFFLGRPPATAPSPDGLVPEPFDSVDDILARMADAGFSPVEVVWLLSSHTIAAADHVDPTIPGTPFDSTPSIFDSQFFIETQLRGTLFPGTGGNPGEVESPLPGEIRLQSDHLLARDPRTACEWQSMVDNMPKIQNRFAATMLKMSLLGQNVRDLIDCSDVIPTPPPLVGTAHLPAGKTQSDVEQACATTPFPTIPADPGPVTSVPPVPPS
Turning to B2, the Michaelis-Menten constant (Km) was 6.3 ± 0.7 µM in series [6] (other: high efficiency site); 1,100 ± 90 μM in series [6] (other: low efficiency site); 2,000 ± 100 μM in series [7]; 168 ± 10 µM in [8] (other: high efficiency site); 11,400 ± 2,000 μM in series [8] (other: low efficiency site); 2.0 ± 0.2 µM in series [9]. In addition, the Km in [10] turned out to be 38.9 ± 6.9 µM. The kcat in [6] (other: high efficiency site) amounted to 2.0 ± 0.1 s⁻¹; in [6] (other: low efficiency site), 11.2 ± 0.3 s⁻¹; in [7], 1.38 ± 0.03 s⁻¹; in series [8] (other: high efficiency site), 1.91 ± 0.04 s⁻¹; in series [8] (other: low efficiency site), 6.3 ± 0.4 s⁻¹; in series [9], 0.3 ± 0.01 s⁻¹. Besides, the catalytic constant (kcat) in [10] came to 7 ± 0.5 s⁻¹. The catalytic efficiency (kcat/Km) was 314 ± 37 s⁻¹ mM⁻¹ in series [6] (other: high efficiency site); 10.3 ± 0.9 s⁻¹ mM⁻¹ in series [6] (other: low efficiency site); 0.68 ± 0.05 s⁻¹ mM⁻¹ in [7]; 11.4 ± 0.7 s⁻¹ mM⁻¹ in [8] (other: high efficiency site); 0.55 ± 0.10 s⁻¹ mM⁻¹ in series [8] (other: low efficiency site); 152 ± 20 s⁻¹ mM⁻¹ in series [9]. Also, the kcat/Km in series [10] came out at 180 ± 35 s⁻¹ mM⁻¹.
